Results on eight molecules are retold here after patent US9937235B2, “Lipidated peptides as anti-obesity agents” (USTAV ORGANICKE CHEMIE A BIOCHEMIE AKADEMIE VED CR, V.V.I, priority 2012, dated 2018).

The subject of one assay is fasted C57BL/6 mice. Briefly: Food intake in fasted mice after SC administration. It is filed as in vivo, mouse. Conditions: fasted C57BL/6 mice, 5 mg/kg SC, 45 min. In short, it runs like this: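 Male C57BL/6 mice, food-deprived 17 h, received saline, PrRP or lipidated analogs either SC at 1-10 mg/kg or ICV into the third ventricle at 4 nmol/mouse.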
Assay [1] concerns the target T1, rat PrRP receptor (GPR10) in RC-4B/C cells (Rattus norvegicus, UniProt Q64121).
T1 construct: host or cells: RC-4B/C rat pituitary cell line
T1 sequence (Q64121 1-370): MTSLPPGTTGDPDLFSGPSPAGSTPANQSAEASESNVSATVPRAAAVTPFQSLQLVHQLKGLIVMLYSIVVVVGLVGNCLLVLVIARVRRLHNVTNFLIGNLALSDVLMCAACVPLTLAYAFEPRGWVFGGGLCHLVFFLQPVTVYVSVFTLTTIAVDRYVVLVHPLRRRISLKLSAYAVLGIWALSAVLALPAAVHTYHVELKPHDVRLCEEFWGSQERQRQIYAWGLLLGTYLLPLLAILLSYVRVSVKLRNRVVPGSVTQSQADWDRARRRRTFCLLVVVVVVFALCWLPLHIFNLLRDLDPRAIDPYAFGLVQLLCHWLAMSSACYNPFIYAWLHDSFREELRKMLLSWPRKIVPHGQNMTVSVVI
Kind of assay: Competitive binding to rat pituitary RC-4B/C cells. To be noted: rat RC-4B/C cells, Table 5; read-out: C-4B/C cells ^25I-rat PrRP31 Ki. The protocol:
Competitive binding experiments were performed according to Motulsky and Neubig (Motulsky, A., et al., “Analyzing radioligand binding data,” Curr Protoc Neurosci, Chapter 7, Unit 7.5, 2002). The rat pituitary cell line RC-4B/C (ATCC, Manassas, USA) was grown on 24-well plates which had their bottom coated with polyethyleneimine. The cells were grown to the optimal density of 300-450 thousand per well. […] Plates were incubated for 60 minutes at room temperature. After incubation, the cells were solubilized in 0.1 mol/l solution of NaOH and the radioactivity bound to the cells was counted using a γ-counter. The experiments were performed in duplicate and repeated at least three times. For evaluation of competitive binding experiments, the program Graph Pad Prism Software (San Diego, Calif., USA) was used. A method of nonlinear regression assuming one-site binding was used.

For assay [2], the target named is T2, rat PrRP receptor in RC-4B/C cells (rat, UniProt Q64121 1-370).
T2 construct: whole, on cells; also called the rat receptor; GPR10
T2 sequence (looked up): T1 sequence (Q64121 1-370)
Kind of assay: competition with 125I-rat PrRP31 on RC-4B/C cells; Ki by Cheng-Prusoff. The protocol:
(§1) The rat pituitary cell line RC-4B/C (ATCC, Manassas, USA) was grown on 24-well plates which had their bottom coated with polyethyleneimine. The cells were grown to the optimal density of 300-450 thousand per well.
(§2) Plates were incubated for 60 minutes at room temperature. After incubation, the cells were solubilized in 0.1 mol/l solution of NaOH and the radioactivity bound to the cells was counted using a γ-counter. The experiments were performed in duplicate and repeated at least three times.
For evaluation of competitive binding experiments, the program Graph Pad Prism Software (San Diego, Calif., USA) was used. A method of nonlinear regression assuming one-site binding was used.

The target of assay [3] is T2, rat PrRP receptor in RC-4B/C cells. Kind of assay: competition with 125I-rat PrRP31 on RC-4B/C cells. The protocol:
as §1, §2

Where a SMILES comes first, the peptide text is derived from it. Where no end group is shown, it is not given here. [ ]: non-standard residue; d: D form. The star is where a group is joined. Palmitoyl = CCCCCCCCCCCCCCCC(=O)*; Tridecanoyl = CCCCCCCCCCCCC(=O)*; Myristoyl = CCCCCCCCCCCCCC(=O)*; Nle = CCCC[C@H](N)C(=O)O; Dap = NC[C@H](N)C(=O)O

For `CCCCCCCCCCCCCCCC(=O)N[C@@H](CO)C(=O)N[C@@H](CCCNC(=N)N)C(=O)N[C@@H](C)C(=O)N[C@@H](Cc1c[nH]cn1)C(=O)N[C@@H](CCC(N)=O)C(=O)N[C@@H](Cc1c[nH]cn1)C(=O)N[C@@H](CO)C(=O)N[C@@H](CCSC)C(=O)N[C@@H](CCC(=O)O)C(=O)N[C@H](C(=O)N[C@@H](CCCNC(=N)N)C(=O)N[C@H](C(=O)N1CCC[C@H]1C(=O)N[C@@H](CC(=O)O)C(=O)N[C@H](C(=O)N[C@@H](CC(N)=O)C(=O)N1CCC[C@H]1C(=O)N[C@@H](C)C(=O)N[C@@H](Cc1c[nH]c2ccccc12)C(=O)N[C@@H](Cc1ccc(O)cc1)C(=O)N[C@H](C(=O)NCC(=O)N[C@@H](CCCNC(=N)N)C(=O)NCC(=O)N[C@H](C(=O)N[C@@H](CCCNC(=N)N)C(=O)N1CCC[C@H]1C(=O)N[C@H](C(=O)NCC(=O)N[C@@H](CCCNC(=N)N)C(=O)N[C@@H](Cc1ccccc1)C(N)=O)C(C)C)[C@@H](C)CC)[C@@H](C)O)[C@@H](C)CC)[C@@H](C)O)[C@@H](C)O` [Analog 61] (Palmitoyl-SRAHQHSMETRTPDINPAWYTGRGIRPVGRF-NH2), in the assay on fasted C57BL/6 mice, the “Food intake in mice (5 mg/kg SC) % saline-treated group (45 min)” value is 2%. Moreover, in assay [1], the Ki stood at 410 ± 120 pM.

B1: analog no. 1 (peptide)
peptide: [Dap]RAHQHS[Nle]ETRTPDINPAWYTGRGIRPVGRF-NH2
modifications: N-terminus assumed
SMILES: CCCC[C@H](NC(=O)[C@H](CO)NC(=O)[C@H](Cc1c[nH]cn1)NC(=O)[C@H](CCC(N)=O)NC(=O)[C@H](Cc1c[nH]cn1)NC(=O)[C@H](C)NC(=O)[C@H](CCCNC(=N)N)NC(=O)[C@@H](N)CN)C(=O)N[C@@H](CCC(=O)O)C(=O)N[C@H](C(=O)N[C@@H](CCCNC(=N)N)C(=O)N[C@H](C(=O)N1CCC[C@H]1C(=O)N[C@@H](CC(=O)O)C(=O)N[C@H](C(=O)N[C@@H](CC(N)=O)C(=O)N1CCC[C@H]1C(=O)N[C@@H](C)C(=O)N[C@@H](Cc1c[nH]c2ccccc12)C(=O)N[C@@H](Cc1ccc(O)cc1)C(=O)N[C@H](C(=O)NCC(=O)N[C@@H](CCCNC(=N)N)C(=O)NCC(=O)N[C@H](C(=O)N[C@@H](CCCNC(=N)N)C(=O)N1CCC[C@H]1C(=O)N[C@H](C(=O)NCC(=O)N[C@@H](CCCNC(=N)N)C(=O)N[C@@H](Cc1ccccc1)C(N)=O)C(C)C)[C@@H](C)CC)[C@@H](C)O)[C@@H](C)CC)[C@@H](C)O)[C@@H](C)O
notes: analog of rat PrRP31; also called [Dpr^1]PrRP31
Take B1: in assay [2], the Ki was determined as 3740 pM. In addition, the “% of PrRP31 binding” value in assay [3] was found to be 132%.

B2: analog no. 6 (peptide)
peptide: [Dap](Palmitoyl)RAHQHS[Nle]ETRTPDINPAWYTGRGIRPVGRF-NH2
modifications: N-terminus assumed
SMILES: CCCCCCCCCCCCCCCC(=O)NC[C@H](N)C(=O)N[C@@H](CCCNC(=N)N)C(=O)N[C@@H](C)C(=O)N[C@@H](Cc1c[nH]cn1)C(=O)N[C@@H](CCC(N)=O)C(=O)N[C@@H](Cc1c[nH]cn1)C(=O)N[C@@H](CO)C(=O)N[C@@H](CCCC)C(=O)N[C@@H](CCC(=O)O)C(=O)N[C@H](C(=O)N[C@@H](CCCNC(=N)N)C(=O)N[C@H](C(=O)N1CCC[C@H]1C(=O)N[C@@H](CC(=O)O)C(=O)N[C@H](C(=O)N[C@@H](CC(N)=O)C(=O)N1CCC[C@H]1C(=O)N[C@@H](C)C(=O)N[C@@H](Cc1c[nH]c2ccccc12)C(=O)N[C@@H](Cc1ccc(O)cc1)C(=O)N[C@H](C(=O)NCC(=O)N[C@@H](CCCNC(=N)N)C(=O)NCC(=O)N[C@H](C(=O)N[C@@H](CCCNC(=N)N)C(=O)N1CCC[C@H]1C(=O)N[C@H](C(=O)NCC(=O)N[C@@H](CCCNC(=N)N)C(=O)N[C@@H](Cc1ccccc1)C(N)=O)C(C)C)[C@@H](C)CC)[C@@H](C)O)[C@@H](C)CC)[C@@H](C)O)[C@@H](C)O
notes: analog of rat PrRP31; also called [Dpr(palm)^1]PrRP31
B2: the Ki in assay [2] worked out at 460 pM. Besides, the “% of PrRP31 binding” value in assay [3] is 1070%.

B3: Rat PrRP31 (peptide)
peptide: SRAHQHSMETRTPDINPAWYTGRGIRPVGRF-NH2
notes: also called prolactin-releasing peptide
In the case of B3, the Ki in assay [2] came out at 4930 pM. For the same molecule, in assay [3], the “% of PrRP31 binding” value is 100%.

B4: analog no. 4 (peptide)
peptide: [Dap](Tridecanoyl)RAHQHS[Nle]ETRTPDINPAWYTGRGIRPVGRF-NH2
modifications: N-terminus assumed
SMILES: CCCCCCCCCCCCC(=O)NC[C@H](N)C(=O)N[C@@H](CCCNC(=N)N)C(=O)N[C@@H](C)C(=O)N[C@@H](Cc1c[nH]cn1)C(=O)N[C@@H](CCC(N)=O)C(=O)N[C@@H](Cc1c[nH]cn1)C(=O)N[C@@H](CO)C(=O)N[C@@H](CCCC)C(=O)N[C@@H](CCC(=O)O)C(=O)N[C@H](C(=O)N[C@@H](CCCNC(=N)N)C(=O)N[C@H](C(=O)N1CCC[C@H]1C(=O)N[C@@H](CC(=O)O)C(=O)N[C@H](C(=O)N[C@@H](CC(N)=O)C(=O)N1CCC[C@H]1C(=O)N[C@@H](C)C(=O)N[C@@H](Cc1c[nH]c2ccccc12)C(=O)N[C@@H](Cc1ccc(O)cc1)C(=O)N[C@H](C(=O)NCC(=O)N[C@@H](CCCNC(=N)N)C(=O)NCC(=O)N[C@H](C(=O)N[C@@H](CCCNC(=N)N)C(=O)N1CCC[C@H]1C(=O)N[C@H](C(=O)NCC(=O)N[C@@H](CCCNC(=N)N)C(=O)N[C@@H](Cc1ccccc1)C(N)=O)C(C)C)[C@@H](C)CC)[C@@H](C)O)[C@@H](C)CC)[C@@H](C)O)[C@@H](C)O
notes: analog of rat PrRP31
Consider B4, for which the Ki in assay [2] was 510 pM. Besides, the “% of PrRP31 binding” value in assay [3] is 967%.

B5: analog no. 5 (peptide)
peptide: [Dap](Myristoyl)RAHQHS[Nle]ETRTPDINPAWYTGRGIRPVGRF-NH2
modifications: N-terminus assumed
SMILES: CCCCCCCCCCCCCC(=O)NC[C@H](N)C(=O)N[C@@H](CCCNC(=N)N)C(=O)N[C@@H](C)C(=O)N[C@@H](Cc1c[nH]cn1)C(=O)N[C@@H](CCC(N)=O)C(=O)N[C@@H](Cc1c[nH]cn1)C(=O)N[C@@H](CO)C(=O)N[C@@H](CCCC)C(=O)N[C@@H](CCC(=O)O)C(=O)N[C@H](C(=O)N[C@@H](CCCNC(=N)N)C(=O)N[C@H](C(=O)N1CCC[C@H]1C(=O)N[C@@H](CC(=O)O)C(=O)N[C@H](C(=O)N[C@@H](CC(N)=O)C(=O)N1CCC[C@H]1C(=O)N[C@@H](C)C(=O)N[C@@H](Cc1c[nH]c2ccccc12)C(=O)N[C@@H](Cc1ccc(O)cc1)C(=O)N[C@H](C(=O)NCC(=O)N[C@@H](CCCNC(=N)N)C(=O)NCC(=O)N[C@H](C(=O)N[C@@H](CCCNC(=N)N)C(=O)N1CCC[C@H]1C(=O)N[C@H](C(=O)NCC(=O)N[C@@H](CCCNC(=N)N)C(=O)N[C@@H](Cc1ccccc1)C(N)=O)C(C)C)[C@@H](C)CC)[C@@H](C)O)[C@@H](C)CC)[C@@H](C)O)[C@@H](C)O
notes: analog of rat PrRP31; also called [Dpr(myr)^1]PrRP31; myristoylated analog [Dpr^1]PrRP31 (No. 5)
Consider B5, for which the Ki in assay [2] came out at 820 pM. Moreover, in assay [3], the “% of PrRP31 binding” value was 601%.

B6: Rat PrRP20 (peptide)
peptide: TPDINPAWYTGRGIRPVGRF-NH2
For B6, the Ki in assay [2] was 3440 pM. Also, in assay [3], the “% of PrRP31 binding” value came to 143%.

B7: analog no. 10 (peptide)
peptide: Myristoyl-TPDINPAWYTGRGIRPVGRF-NH2
SMILES: CCCCCCCCCCCCCC(=O)N[C@H](C(=O)N1CCC[C@H]1C(=O)N[C@@H](CC(=O)O)C(=O)N[C@H](C(=O)N[C@@H](CC(N)=O)C(=O)N1CCC[C@H]1C(=O)N[C@@H](C)C(=O)N[C@@H](Cc1c[nH]c2ccccc12)C(=O)N[C@@H](Cc1ccc(O)cc1)C(=O)N[C@H](C(=O)NCC(=O)N[C@@H](CCCNC(=N)N)C(=O)NCC(=O)N[C@H](C(=O)N[C@@H](CCCNC(=N)N)C(=O)N1CCC[C@H]1C(=O)N[C@H](C(=O)NCC(=O)N[C@@H](CCCNC(=N)N)C(=O)N[C@@H](Cc1ccccc1)C(N)=O)C(C)C)[C@@H](C)CC)[C@@H](C)O)[C@@H](C)CC)[C@@H](C)O
notes: myristoylated rat PrRP20
In turn, B7 returned a Ki in assay [2] of 780 pM. Moreover, in assay [3], the “% of PrRP31 binding” value stood at 632%.
